Molecular target: the molecule itself
Assay: crystal structure

B1: Haemophilus ducreyi I51M-L72M-YhcB cytosolic region, residues 31-128 (domain or fragment)
chain: MKGNIQQQIQLKSELASAEAKMEEQKQQLERHFEQSANLLENMAEDYKKLYTHFAQNSEQLLPESNQVEFFKRLKNHANGDEDNQPRDYSDGSSGLLKS
modifications: selenomethionine-labeled (Met-51, Met-72)
- stoichiometry N: 4
